# Measurements taken from PMC4414246.
# Experiments:
# Experiment in all cases: fluorescence polarization
# [1] = target: T1, U1A E19S (UniProt P09012 10-89, E19S)
# [2] = target: dK50dM51 (UniProt P09012 10-89, del50-51)
# [3] = target: U1A L49F (UniProt P09012 10-89, L49F)
# [4] = target: U1A E19K (UniProt P09012 10-89, E19K)
# [5] = target: U1A E19F:Y13Q (UniProt P09012 10-89, Y13Q;E19F)
# [6] = target: U1A E19F:N15V (UniProt P09012 10-89, N15V;E19F)
# [7] = target: U1A E19S:N15V (UniProt P09012 10-89, N15V;E19S)
# [8] = target: U1A E19A:N15V (UniProt P09012 10-89, N15V;E19A)
# [9] = target: U1A L49A:F56A (UniProt P09012 10-89, L49A;F56A)
# [10] = target: U1A N16A (UniProt P09012 10-89, N16A)
# [11] = target: U1A L49S (UniProt P09012 10-89, L49S)
# [12] = target: dK50dM51 S48A (UniProt P09012 10-89, S48A;del50-51)
# [13] = target: U1A M51S (UniProt P09012 10-89, M51S)
# [14] = target: U1A (UniProt P09012 10-89)
# [15] = target: U1A M51K (UniProt P09012 10-89, M51K)
# [16] = target: dK50dM51 E19F (UniProt P09012 10-89, E19F;del50-51)
# [17] = target: U1A M51A:F56A (UniProt P09012 10-89, M51A;F56A)
# [18] = target: dK50dM51 E19A (UniProt P09012 10-89, E19A;del50-51)
# [19] = target: dK50dM51 S46A (UniProt P09012 10-89, S46A;del50-51)
# [20] = target: U1A S46A (UniProt P09012 10-89, S46A)
# [21] = target: U1A E19A:F56A (UniProt P09012 10-89, E19A;F56A)
# [22] = target: T1, U1A E19S; remark: listed apart in the source
# [23] = target: U1A N15A (UniProt P09012 10-89, N15A)
# [24] = target: U1A S48A (UniProt P09012 10-89, S48A)
binder,measurement,setting,value
GGCAGAUCUGAGCCUGGGAGCUCUCUGCC (structured_RNA) [TAR RNA],binding signal,[1],~1.6 fold lower affinity than without tRNA
same,Kd,[2],15.9 ± 2.3 µM
same,Kd,[3],24.1 ± 4.3 µM
same,Kd,[4],5.9 ± 0.4 µM
same,Kd,[5],58 ± 24.1 µM
same,Kd,[6],19 ± 2.5 µM
same,Kd,[7],11.3 ± 0.8 µM
same,Kd,[8],14.2 ± 1.4 µM
same,Kd,[9],123 ± 38.7 µM
same,Kd,[10],8.8 ± 1.4 µM
same,Kd,[11],12.4 ± 2.3 µM
same,Kd,[12],33.9 ± 15.9 µM
same,Kd,[13],29.9 ± 5.7 µM
same,Kd,[14],19.1 ± 4.9 µM
same,Kd,[15],7.7 ± 0.5 µM
same,Kd,[16],12.6 ± 1.8 µM
same,Kd,[17],177 ± 98.2 µM
same,Kd,[18],10.2 ± 2.2 µM
same,Kd,[19],24.5 ± 6 µM
same,Kd,[20],15.1 ± 2.6 µM
same,Kd,[21],29.2 ± 6.3 µM
same,Kd,[22],4.1 ± 0.3 µM
same,Kd,[23],11.7 ± 0.9 µM
same,Kd,[24],14.2 ± 1.3 µM
